Source: paper PMC9065173

Molecular target: CXC-chemokine receptor 4 (CXCR4) (human (endogenous in MOLM13 and CEM)) (UniProt P61073)
Chain of UniProt P61073 (P61073 whole entry): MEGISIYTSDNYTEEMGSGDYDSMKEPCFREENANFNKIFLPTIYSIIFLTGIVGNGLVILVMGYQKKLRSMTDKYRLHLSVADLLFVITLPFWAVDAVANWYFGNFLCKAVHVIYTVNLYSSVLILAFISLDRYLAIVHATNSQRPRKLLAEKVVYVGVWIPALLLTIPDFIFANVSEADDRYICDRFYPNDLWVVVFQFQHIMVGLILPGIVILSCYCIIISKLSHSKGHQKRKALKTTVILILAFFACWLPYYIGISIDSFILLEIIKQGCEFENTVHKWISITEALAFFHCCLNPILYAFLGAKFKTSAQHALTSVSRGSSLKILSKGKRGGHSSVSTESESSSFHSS

With “bifunctional T140-KLA peptide, ligated onto the RBCEV surface (T140-KLA-EVs)” the apoptosis of MOLM13 cells after 4 days with T140-KLA-EVs (annexin V / PI staining, flow cytometry); no difference between T140-KLA-EVs and KLA-EVs in CXCR4-negative AsPC-1 cells was > 50%.
